Numbering of substitutions follows the chain as printed.
Tests used:
[1] = target: T1, cynomolgus CD40 overexpressed on CHO-S cells (cynomolgus, UniProt G7PG38 21-278); experiment: flow cytometry on CHO-S cells overexpressing cynomolgus CD40
T1 construct: whole, on cells; also called cynomolgus CD40 expressing CHO cells
Procedure: (§1) Specifically, by transfecting the pCHO1.0 vector (Invitrogen) with the human/cynomolgus CD40 cDNA cloned into the MCS and followed by applying pressure selection, CHO-S cells overexpressing human/cynomolgus CD40 were generated. The expanded CD40 overexpressing cells were adjusted to the appropriate cell density and plated on 96-well flow plate. After centrifugation, the cells were incubated with a gradient-diluted sample at 4° C. for 30 minutes. and the cells were then washed twice with PBS, and followed by incubation with a fluorescent secondary antibody diluted to the appropriate concentration, at 4° C. for 30 min. Following two washes with PBS, cells were resuspended in PBS and fluorescent signals were detection on the CytoFlex flow cytometer to calculate the corresponding MFI.

[2] = target: T2, human CD40 overexpressed on cells (human, UniProt P25942 21-277); experiment: cell-based or functional assay
T2 sequence (P25942 21-277 limits assumed): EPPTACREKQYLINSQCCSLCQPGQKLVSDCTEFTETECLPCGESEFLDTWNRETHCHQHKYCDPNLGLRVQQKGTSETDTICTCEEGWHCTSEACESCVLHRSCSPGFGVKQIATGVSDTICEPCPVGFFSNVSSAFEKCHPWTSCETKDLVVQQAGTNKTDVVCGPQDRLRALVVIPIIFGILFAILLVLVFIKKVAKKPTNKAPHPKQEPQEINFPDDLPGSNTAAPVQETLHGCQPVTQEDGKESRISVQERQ

[3] = target: T2, human CD40 overexpressed on cells; experiment: cell-based or functional assay; remark: listed apart in the source
[4] = target: T2, human CD40 overexpressed on cells; experiment: cell-based or functional assay; remark: listed apart in the source
[5] = target: T2, human CD40 overexpressed on cells; experiment: flow cytometry on CHO-S cells overexpressing human CD40
Procedure: as §1

human CD40-Fc protein = target: T3, human CD40-Fc protein (human, UniProt P25942 21-193); experiment: BLI (ForteBio), IgG on AHQ sensor, 100 nM CD40-Fc in solution, bivalent, 1:1 model
T3 construct: also called human CD40-Fc fusion protein; CD40-Fc antigen; not shown: Fc part
T3 sequence (P25942 21-193 limits assumed): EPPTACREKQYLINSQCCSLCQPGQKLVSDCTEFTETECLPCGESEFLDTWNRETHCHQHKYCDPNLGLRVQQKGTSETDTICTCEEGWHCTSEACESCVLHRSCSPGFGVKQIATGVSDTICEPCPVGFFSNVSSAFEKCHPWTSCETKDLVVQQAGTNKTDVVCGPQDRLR
Procedure: (§2) The antibody-loaded sensor was further incubated in a high concentration of irrelevant intact antibody solution for 10 minutes to saturate and block the Fc binding sites on the AHQ sensor. The blocked sensor was then incubated with 100 nM CD40-Fc antigen until a plateau was reached, and then the sensor was transferred to the analysis buffer for at least 2 minutes for dissociation rate measurement. Kinetic analysis was performed using a 1:1 binding model.

[6] = target: T4, cynomolgus CD40-Fc protein (cynomolgus, UniProt G7PG38 21-193); experiment: as above
T4 construct: not shown: Fc part
Procedure: as §2

B1: CP870893-IgG2 (antibody, V domains shown)
VH: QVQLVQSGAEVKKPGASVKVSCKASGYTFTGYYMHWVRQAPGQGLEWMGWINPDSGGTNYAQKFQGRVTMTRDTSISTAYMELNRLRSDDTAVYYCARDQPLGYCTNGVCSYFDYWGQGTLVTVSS
VL: DIQMTQSPSSVSASVGDRVTITCRASQGIYSWLAWYQQKPGKAPNLLIYTASTLQSGVPSRFSGSGSGTDFTLTISSLQPEDFATYYCQQANIFPLTFGGGTKVEIKR
notes: Control antibody; also called CP870893-IgG2-wt; CP-870893-G2-WT
**Q.** What does the source list for B1?
**A.** EC50 [1]: 7.28 nM; Signal amplification with bead crosslinking (NFkB-Luc2P reporter, U2OS cells overexpressing human CD40) [2]: 14.8; Signal amplification without bead crosslinking (NFkB-Luc2P reporter, U2OS cells overexpressing human CD40) [2]: 4.7; EC50 of the CD40-NFkB reporter gene assay (without beads cross-linking) [3]: 131 nM; EC50 of the CD40-NFkB reporter gene assay (with beads cross-linking) [4]: 181 nM; EC50 [5]: 8 nM

B2: ADI-47720 (antibody, human IgG1, kappa, V domains shown)
VH: EVQLVESGGGLVQPGRSLRLSCAASGFTFDDYAMHWVRQAPGKGLEWVSGISWSSGSIGYADSVKGRFTISRDNAKNSLYLQMNSLRAEDTAVYYCAKDPTATTGARGYFDLWGRGTLVTVSS
VL: B1 VL with Y30S, N45K, T50A, T53S, A91R, N92A, I93S, L96P
**Q.** What does the source list for B2?
**A.** EC50 [1]: 5.54 nM; Signal amplification with bead crosslinking (NFkB-Luc2P reporter, U2OS cells overexpressing human CD40) [2]: 11.5; Signal amplification without bead crosslinking (NFkB-Luc2P reporter, U2OS cells overexpressing human CD40) [2]: 1.3; Kd (human CD40-Fc protein): 9.32 nM; Kd [6]: 6.07 nM; EC50 of the CD40-NFkB reporter gene assay (without beads cross-linking) [3]: ~1070 nM; EC50 of the CD40-NFkB reporter gene assay (with beads cross-linking) [4]: 304 nM; EC50 [5]: 4.82 nM
